{
  "source": "IntAct's records for PubMed 19151721",
  "parents": {"B1": {"name": "SLAM family member 7 (Mus musculus), Q8BHK6 (parent)", "chain": "MARFSTYIIFTSVLCQLTVTAASGTLKKVAGALDGSVTFTLNITEIKVDYVVWTFNTFFLAMVKKDGVTSQSSNKERIVFPDGLYSMKLSQLKKNDSGAYRAEIYSTSSQASLIQEYVLHVYKHLSRPKVTIDRQSNKNGTCVINLTCSTDQDGENVTYSWKAVGQGDNQFHDGATLSIAWRSGEKDQALTCMARNPVSNSFSTPVFPQKLCEDAATDLTSLRGILYILCFSAVLILFAVLLTIFHTTWIKKGKGCEEDKKRVDRHQEMPDLCPHLEENADYDTIPYTEKRRPEEDAPNTFYSTVQIPKVVKSPSSLPAKPLVPRSLSFENVI", "partner": "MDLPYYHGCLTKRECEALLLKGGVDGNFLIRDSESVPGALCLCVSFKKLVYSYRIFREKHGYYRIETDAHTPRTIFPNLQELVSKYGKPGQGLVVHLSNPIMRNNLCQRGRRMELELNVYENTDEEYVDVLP"}},
  "data": [
    {"variants_of": "B1", "conditions": "with sh21b_mouse Sh2d1b", "values": [
      {"variant": "MARFSTYIIFTSVLCQLTVTAASGTLKKVAGALDGSVTFTLNITEIKVDYVVWTFNTFFLAMVKKDGVTSQSSNKERIVFPDGLYSMKLSQLKKNDSGAYRAEIYSTSSQASLIQEYVLHVYKHLSRPKVTIDRQSNKNGTCVINLTCSTDQDGENVTYSWKAVGQGDNQFHDGATLSIAWRSGEKDQALTCMARNPVSNSFSTPVFPQKLCEDAATDLTSLRGILYILCFSAVLILFAVLLTIFHTTWIKKGKGCEEDKKRVDRHQEMPDLCPHLEENADFDTIPFTEKRRPEEDAPNTFFSTVQIPKVVKSPSSLPAKPLVPRSLSFENVI", "note": "[Y282F;Y287F;Y302F]", "effect of a mutation on the interaction": "disrupting interaction"},
      {"variant": "MARFSTYIIFTSVLCQLTVTAASGTLKKVAGALDGSVTFTLNITEIKVDYVVWTFNTFFLAMVKKDGVTSQSSNKERIVFPDGLYSMKLSQLKKNDSGAYRAEIYSTSSQASLIQEYVLHVYKHLSRPKVTIDRQSNKNGTCVINLTCSTDQDGENVTYSWKAVGQGDNQFHDGATLSIAWRSGEKDQALTCMARNPVSNSFSTPVFPQKLCEDAATDLTSLRGILYILCFSAVLILFAVLLTIFHTTWIKKGKGCEEDKKRVDRHQEMPDLCPHLEENADYDTIPYTEKRRPEEDAPNTFFSTVQIPKVVKSPSSLPAKPLVPRSLSFENVI", "note": "[Y302F]", "effect of a mutation on the interaction": "disrupting interaction"}
    ]}
  ]
}
